Measured values from patent US20240024498A1 (JIANGSU HENGRUI PHARMACEUTICALS, published 2024).
Where a chain is given by its changes, count along the chain named. Read-outs that look alike come from different tables or passages of the source.

Key:
human Claudin18.2 [1] = biological target: T1, human Claudin18.2 (human); assay: cell-based ELISA (absorbance at 450 nm) on fixed NUGC4 cells stably expressing Claudin18.2
T1 construct: also called hClaudin18.2; huClaudin18.2
Procedure: (§1) Cell-based ELISA assay was used to test the binding properties of the Claudin18.2 antibodies. The stably transfected Claudin18.2-expressing NUGC4 cells were cultured in a 96-well cell plate (Corning, 3599). When growing at 90% density, the cells were immobilized with 4% paraformaldehyde for 1 h. The plate was washed 3 times with PBST buffer (pH 7.4 PBS containing 0.05% Tween-20), and a PBS-diluted 5% skim milk (powdered skim milk from Brightdairy) blocking solution was added at 200 μL/well. The plate was incubated in a 37° C. incubator for 2.5 h or was let stand at 4° C. overnight (16-18 h) for blocking. After blocking, the blocking solution was removed. The plate was washed 3 times with the PBST buffer, and then a test antibody that was diluted with a sample diluent (pH 7.4 PBS containing 1% skim milk) to different concentrations was added at 50 μL/well. The plate was incubated in a 37° C. incubator for 2 h. […] The plate was incubated at 37° C. for 1 h. The plate was washed 6 times with PBST, and then TMB chromogenic substrate (KPL, 52-00-03) was added at 50 µL/well. The plate was incubated at room temperature for 10-15 min, and the reaction was terminated by adding 1 M H₂SO₄ at 50 μL/well. The absorbance at 450 nm was read using an MD Versa Max™ microplate reader, and the binding EC50 value of the Claudin18.2 antibody to Claudin18.2 was calculated.

human Claudin18.2 [2] = biological target: T1, human Claudin18.2; assay: cell-based ELISA on fixed NUGC4 cells stably expressing Claudin18.2
Procedure: as §1

human Claudin18.2 [3] = biological target: T1, human Claudin18.2; assay: cell-based or functional assay
human Claudin18.2 [4] = biological target: T1, human Claudin18.2; assay: flow cytometry on HEK293/hClaudin18.2 cells, Scatchard plot
Procedure: On the day of experiment, HEK293/hClaudin18.2 cells were collected into a U-bottomed 96-well plate at 1×10⁵ to 2×10⁵ cells per well. A human Claudin18.2 antibody that was 2× diluted serially (12 concentration points) from an initial concentration of 5 μg/mL was added, and the plate was incubated at 4° C. for 1 h. IMAB362 was used as a positive control, and a negative control with no antibody was also provided. The antibody was removed by centrifugation, and FITC anti-human IgG Fc antibody (200×) was added at 100 μL/well. The plate was incubated in the dark at 4° C. for 30 min and washed twice with PBS+2% FBS before flow cytometry analysis. BD FACS CantoII was started and preheated, and then the BD FACSDiva software was run to start a new experiment. […] The samples in the U-bottomed 96-well plate were tested at the saved voltage, and data were recorded. The experimental data were analyzed using Flowjo software to obtain a Geo mean, and an MESF-Geo Mean standard curve was fit according to the instructions for Quantum™ FITC-5 MESF Kit. The molar concentration of the human Claudin18.2 antibody bound to HEK293/hClaudin18.2 cells and the free antibody concentration were calculated according to the concentration fluorescence value of the FITC anti-human IgG Fc antibody, and the Bmax and the dissociation constant KD of the antibody were calculated through Scatchard plots.

human Claudin18.2 [5] = biological target: T1, human Claudin18.2; assay: cell-based or functional assay; remark: listed apart in the source
human Claudin18.2 [6] = biological target: T1, human Claudin18.2; assay: cell-based ELISA on fixed NUGC4 cells stably expressing Claudin18.2; remark: listed apart in the source
Procedure: as §1

human Claudin18.2 [7] = biological target: T1, human Claudin18.2; assay: cell-based ELISA (absorbance at 450 nm) on fixed NUGC4 cells stably expressing Claudin18.2; remark: listed apart in the source
Procedure: as §1

human Claudin18.2 [8] = biological target: T1, human Claudin18.2; assay: as above; remark: listed apart in the source
Procedure: as §1

human Claudin18.2 [9] = biological target: T1, human Claudin18.2; assay: cell-based ELISA on fixed NUGC4 cells stably expressing Claudin18.2; remark: listed apart in the source
Procedure: as §1

B1: h1901-11 (antibody, human IgG1, kappa, V domains shown)
VH: EVQLVESGGGLVQPGGSLRLSCAASGFTFSDYGIHWVRQAPGKGLEWIAYISRGSSTIYYADTVKGRFTISRDNAKNSLYLQMTSLRAEDTAVYYCARGGYDTRNAMDYWGQGTTVTVSS
VL: DIVMTQSPDSLAVSLGERATISCKSSQSLLNSGNQKNYLAWYQQKPGQPPKLLIYGASTRASGVPDRFSGSGSGTDFTLTISSLQAEDVAIYHCQNDLYYPLTFGQGTKLEIKR
notes: Humanized antibody of mAb1901, L3 + H3, human IgG1/kappa
B1 was tested, and the Emax (human Claudin18.2 [1]) was 1.44, the EC50 (human Claudin18.2 [2]) was 0.076 nM and the “ADCC effect, IC50 (FcrR3A-V158-NFAT-RE-Jurkat reporter; NUGC4 cells, high Claudin18.2 expression)” value (human Claudin18.2 [3]) was 0.0262 µg/mL. The “ADCC effect, IC50 (FcrR3A-V158-NFAT-RE-Jurkat reporter; NUGC4 cells, low Claudin18.2 expression)” value (human Claudin18.2 [3]) was 0.0224 µg/mL, the “ADCC effect, IC50 (FcrR3A-V158-NFAT-RE-Jurkat reporter; NUGC4 cells, moderate Claudin18.2 expression)” value (human Claudin18.2 [3]) was 0.0154 µg/mL and the Kd (human Claudin18.2 [4]) was 6.8 nM.

B2: ADC-4 (antibody, human IgG1, kappa, V domains shown)
VH: B1 VH
VL: B1 VL
modifications: compound 9-A coupled to sulfhydryl groups after TCEP reduction; mean drug loading n=4.06 per antibody; positions not given
In the case of B2, the “in vitro cell killing EC50, NUGC4-claudin18.2 high expression cells (CellTiter-Glo)” value (human Claudin18.2 [5]) is reported as 12 nM, the “in vitro cell killing EC50, NUGC4-claudin18.2 low expression cells (CellTiter-Glo)” value (human Claudin18.2 [5]) is reported as 299 nM and the “in vitro cell killing Emax, NUGC4-claudin18.2 high expression cells (CellTiter-Glo)” value (human Claudin18.2 [5]) is reported as 85. The “in vitro cell killing Emax, NUGC4-claudin18.2 low expression cells (CellTiter-Glo)” value (human Claudin18.2 [5]) was 61.

B3: ADC-2 (antibody, human IgG1, kappa, V domains shown)
VH: B1 VH
VL: B1 VL
modifications: compound 9-A coupled to sulfhydryl groups after TCEP reduction; mean drug loading n=7.1 per antibody; positions not given
For B3, the “in vitro cell killing EC50, NUGC4-claudin18.2 high expression cells (CellTiter-Glo)” value (human Claudin18.2 [5]) was 1.9 nM, the “in vitro cell killing EC50, NUGC4-claudin18.2 low expression cells (CellTiter-Glo)” value (human Claudin18.2 [5]) was 109 nM and the “in vitro cell killing EC50, NUGC4-claudin18.2 moderate expression cells (CellTiter-Glo)” value (human Claudin18.2 [5]) was 16.8 nM. The “in vitro cell killing Emax, NUGC4-claudin18.2 high expression cells (CellTiter-Glo)” value (human Claudin18.2 [5]) was 91.1 and the “in vitro cell killing Emax, NUGC4-claudin18.2 low expression cells (CellTiter-Glo)” value (human Claudin18.2 [5]) was 69.8.

B4: ADC-5 (antibody, human IgG1, kappa, V domains shown)
VH: B1 VH
VL: B1 VL
modifications: compound 9-A coupled to sulfhydryl groups after TCEP reduction; mean drug loading n=6.8 per antibody; positions not given
B4 was tested, and the “in vitro cell killing EC50, NUGC4-claudin18.2 high expression cells (CellTiter-Glo)” value (human Claudin18.2 [5]) was 3.5 nM, the “in vitro cell killing EC50, NUGC4-claudin18.2 low expression cells (CellTiter-Glo)” value (human Claudin18.2 [5]) was 142 nM and the “in vitro cell killing Emax, NUGC4-claudin18.2 high expression cells (CellTiter-Glo)” value (human Claudin18.2 [5]) was 95.9. For the same binder, the “in vitro cell killing Emax, NUGC4-claudin18.2 low expression cells (CellTiter-Glo)” value (human Claudin18.2 [5]) was 69.9.

B5: ADC-3 (antibody, human IgG1, kappa, V domains shown)
VH: B1 VH
VL: B1 VL
modifications: compound 9-A coupled to sulfhydryl groups after TCEP reduction; mean drug loading n=2.51 per antibody; positions not given
B5 was tested, and the “in vitro cell killing EC50, NUGC4-claudin18.2 high expression cells (CellTiter-Glo)” value (human Claudin18.2 [5]) was 94 nM, the “in vitro cell killing EC50, NUGC4-claudin18.2 low expression cells (CellTiter-Glo)” value (human Claudin18.2 [5]) was over 500 nM and the “in vitro cell killing Emax, NUGC4-claudin18.2 high expression cells (CellTiter-Glo)” value (human Claudin18.2 [5]) was 78.7. For the same binder, the “in vitro cell killing Emax, NUGC4-claudin18.2 low expression cells (CellTiter-Glo)” value (human Claudin18.2 [5]) was 49.

B6: h1901-12 (antibody, human IgG1, kappa, V domains shown)
VH: B1 VH with I48V, I70M
VL: B1 VL
notes: Humanized antibody of mAb1901, L3 + H4, human IgG1/kappa
With B6 the Emax (human Claudin18.2 [1]) was 1.22 and the EC50 (human Claudin18.2 [2]) was 0.116 nM.

B7: IMAB-362 (antibody, human IgG1, kappa, V domains shown)
VH: QVQLQQPGAELVRPGASVKLSCKASGYTFTSYWINWVKQRPGQGLEWIGNIYPSDSYTNYNQKFKDKATLTVDKSSSTAYMQLSSPTSEDSAVYYCTRSWRGNSFDYWGQGTTLTVSS
VL: DIVMTQSPSSLTVTAGEKVTMSCKSSQSLLNSGNQKNYLTWYQQKPGQPPKLLIYWASTRESGVPDRFTGSGSGTDFTLTISSVQAEDLAVYYCQNDYSYPFTFGSGTKLEIKR
notes: Positive control antibody, from WO2016166122; also called positive control antibody
In the case of B7, the Emax (human Claudin18.2 [1]) is reported as 1.11, the EC50 (human Claudin18.2 [2]) is reported as 0.086 nM and the EC50 (human Claudin18.2 [6]) is reported as 0.108 nM. For the same binder, the “ADCC effect, IC50 (FcrR3A-V158-NFAT-RE-Jurkat reporter; NUGC4 cells, high Claudin18.2 expression)” value (human Claudin18.2 [3]) was 0.133 µg/mL, the “ADCC effect, IC50 (FcrR3A-V158-NFAT-RE-Jurkat reporter; NUGC4 cells, low Claudin18.2 expression)” value (human Claudin18.2 [3]) was 0.183 µg/mL and the “ADCC effect, IC50 (FcrR3A-V158-NFAT-RE-Jurkat reporter; NUGC4 cells, moderate Claudin18.2 expression)” value (human Claudin18.2 [3]) was 0.21 µg/mL. It also gave an Emax (human Claudin18.2 [7]) of 1.18, an Emax (human Claudin18.2 [8]) of 0.88 and a Kd (human Claudin18.2 [4]) of 10.2 nM. The EC50 (human Claudin18.2 [9]) was 0.187 nM.

B8: chimeric antibody ch1902 (antibody, human IgG1, kappa, V domains shown)
VH: EVQLQESGAELVKPGASVKLSCKASGYIFTSYWMHWVKQRPGQGLEWIGMIHPNSGSTNYNEKFKGKATLTLDKSSSTAYMQLSSLPSEDSAVYYCARLKTGNSFDYWGQGTTLTVSS
VL: B7 VL with M4L, V91I, D97A, S99T
notes: Murine mAb1902 variable regions on human IgG1 / kappa constant regions
In the case of B8, the EC50 (human Claudin18.2 [6]) is reported as 0.074 nM and the Emax (human Claudin18.2 [7]) is reported as 1.27.

B9: chimeric antibody ch1901 (antibody, human IgG1, kappa, V domains shown)
VH: EVQLMESGGGLVKPGGSLKLSCAASGFTFSDYGIHWVRQAPEMGLEWIAYISRGSSTIYYADTVKGRFTMSRDNAKNTLFLQMTSLRSEDTAMYYCARGGYDTRNAMDYWGQGTSVTVSS
VL: DIVMTQSPSSLSVSAGEKVTMSCKSSQSLLNSGNQKNYLAWYQQKPGQPPKLLIYGASTRASGVPDRFTGSGSGTDFTLTISSVQAEDLAIYHCQNDLYYPLTFGAGTKLELKR
notes: Murine mAb1901 variable regions on human IgG1 / kappa constant regions
Work on B9 yielded an EC50 (human Claudin18.2 [6]) of 0.098 nM and an Emax (human Claudin18.2 [7]) of 1.4.
